Results as given in US20150197564A1 (Regeneron, published 2015).

T1: hANGPTL3(17-460)-His (human, UniProt Q9Y5C1 17-460)
T1 construct: Bought protein (R&D Systems); also called full-length mature human ANGPTL3 with a C-terminal decahistidine tag; Human ANGPTL3 (17-460)-His
T1 sequence: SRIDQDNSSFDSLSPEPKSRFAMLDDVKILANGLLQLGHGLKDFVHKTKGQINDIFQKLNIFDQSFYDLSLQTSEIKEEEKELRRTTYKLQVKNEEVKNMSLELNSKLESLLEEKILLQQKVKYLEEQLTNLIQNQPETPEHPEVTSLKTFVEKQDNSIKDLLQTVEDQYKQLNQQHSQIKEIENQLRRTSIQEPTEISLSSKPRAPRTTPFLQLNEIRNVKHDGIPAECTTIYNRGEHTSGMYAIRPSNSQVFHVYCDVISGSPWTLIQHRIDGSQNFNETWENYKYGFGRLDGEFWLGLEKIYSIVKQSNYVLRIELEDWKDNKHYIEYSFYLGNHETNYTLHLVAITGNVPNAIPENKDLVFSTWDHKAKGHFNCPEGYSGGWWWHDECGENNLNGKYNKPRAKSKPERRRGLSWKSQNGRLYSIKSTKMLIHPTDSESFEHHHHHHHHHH

T2: mANGPTL3(17-455)-His (Mus musculus, UniProt Q9R182 17-455)
T2 construct: Bought protein (R&D Systems); also called full-length mature ANGPTL3 from Mus musculus with a C-terminal decahistidine tag
T2 sequence: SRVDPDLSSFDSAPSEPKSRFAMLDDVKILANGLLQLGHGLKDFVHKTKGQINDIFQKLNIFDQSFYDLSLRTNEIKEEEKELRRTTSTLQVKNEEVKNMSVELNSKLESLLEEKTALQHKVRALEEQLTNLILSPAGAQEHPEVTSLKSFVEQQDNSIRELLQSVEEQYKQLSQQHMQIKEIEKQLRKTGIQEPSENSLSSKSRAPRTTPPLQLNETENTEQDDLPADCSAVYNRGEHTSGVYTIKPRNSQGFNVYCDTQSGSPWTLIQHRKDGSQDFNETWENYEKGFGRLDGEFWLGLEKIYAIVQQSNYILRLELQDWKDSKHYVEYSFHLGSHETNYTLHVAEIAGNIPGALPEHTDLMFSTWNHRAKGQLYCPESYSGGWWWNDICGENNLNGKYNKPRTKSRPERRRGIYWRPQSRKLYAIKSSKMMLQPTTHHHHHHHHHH

T3: hANGPTL3(17-169)-mFc (human)
T3 construct: also called N-terminal coiled-coil domain of hANGPTL3 with a C-terminal mouse Fc fusion
T3 chain: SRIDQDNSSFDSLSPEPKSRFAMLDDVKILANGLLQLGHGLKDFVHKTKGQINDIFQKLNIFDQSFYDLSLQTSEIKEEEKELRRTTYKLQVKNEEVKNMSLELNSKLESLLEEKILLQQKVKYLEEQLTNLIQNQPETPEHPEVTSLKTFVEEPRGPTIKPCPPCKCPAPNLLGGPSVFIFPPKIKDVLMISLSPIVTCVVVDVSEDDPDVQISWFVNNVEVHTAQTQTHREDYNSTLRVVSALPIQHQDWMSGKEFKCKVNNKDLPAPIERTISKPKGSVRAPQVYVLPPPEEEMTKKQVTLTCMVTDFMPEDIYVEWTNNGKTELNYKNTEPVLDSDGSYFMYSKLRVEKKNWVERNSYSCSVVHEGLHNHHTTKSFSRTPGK


Columns and labels:
[1] = target: T1, hANGPTL3(17-460)-His; experiment: Biacore cross-competition; second antibody after pre-loading with Negative Control
Protocol: (§1) Cross competition experiments were performed at 25° C. on a Biacore essentially as described in Example 3 above. […] The results are shown in Table 8 with binding response for the first antibody (mAb1), followed by binding response of the second antibody (mAb2) on the ANGPTL3 surface pre-loaded with the first antibody. Numbers in bold indicate that the antibody pairs are able to bind to hANGPTL3 simultaneously. Numbers in italics indicate that that the antibody pairs are able to bind to hANGPTL3 simultaneously when added sequentially in one direction but not the other. Brackets indicate self-self competition.

[2] = target: T1, hANGPTL3(17-460)-His; experiment: Biacore cross-competition; second antibody after pre-loading with competitor H4H1292P
Protocol: as §1

[3] = target: T1, hANGPTL3(17-460)-His; experiment: Biacore cross-competition; second antibody after pre-loading with competitor H1M896N
Protocol: as §1

[4] = target: T1, hANGPTL3(17-460)-His; experiment: SPR Biacore, antigen captured, 37C, pH 7.4, HBS-EP
Protocol: (§2) All kinetic binding experiments were performed at 25° C. or 37° C. on a BIACORE™ T200 label-free molecular interaction instrument (GE Healthcare) using a CM5 sensor chip. Briefly, an antigen capture surface was generated by covalently coupling either an anti-mouse IgG-specific antibody (anti-mFc; GE Healthcare; catalog #BR-1008-38) or an anti-pentahistidine-specific antibody (Qiagen; catalog #34660) to the surface of a CM5 sensor chip using a standard amine coupling method.

[5] = target: T2, mANGPTL3(17-455)-His; experiment: SPR Biacore, antigen captured, 37C, pH 7.4, HBS-EP
Protocol: as §2

[6] = target: T1, hANGPTL3(17-460)-His; experiment: SPR Biacore, antigen captured, 25C, pH 7.4, HBS-EP
Protocol: as §2

[7] = target: T3, hANGPTL3(17-169)-mFc; experiment: SPR Biacore, antigen captured, 25C, pH 7.4, HBS-EP
Protocol: as §2

[8] = target: T1, hANGPTL3(17-460)-His; experiment: Biacore cross-competition, 25C; first antibody at 25 µg/ml on captured antigen
Protocol: as §1

[9] = target: T1, hANGPTL3(17-460)-His; experiment: Biacore cross-competition; second antibody after pre-loading with competitor H4H1279P
Protocol: as §1

[10] = target: T1, hANGPTL3(17-460)-His; experiment: Biacore cross-competition; second antibody after pre-loading with competitor H4H1250P
Protocol: as §1

| Binder | mAb2 binding response (RU) [1] [RU] | mAb2 binding response (RU) [2] [RU] | mAb2 binding response (RU) [3] [RU] | Kd [4] [nM] | koff [4] [s⁻¹] | kon [4] [M⁻¹ s⁻¹] | t1/2 [4] [min] | Kd [5] [nM] | koff [5] [s⁻¹] | kon [5] [M⁻¹ s⁻¹] | t1/2 [5] [min] | Kd [6] [nM] | koff [6] [s⁻¹] | kon [6] [M⁻¹ s⁻¹] | t1/2 [6] [min] | Kd [7] [nM] | koff [7] [s⁻¹] | kon [7] [M⁻¹ s⁻¹] | t1/2 [7] [h] | mAb1 binding response (RU) [8] [RU] | other results |
| --- | --- | --- | --- | --- | --- | --- | --- | --- | --- | --- | --- | --- | --- | --- | --- | --- | --- | --- | --- | --- | --- |
| H4H1279P (antibody, IgG4, V domains shown) VH: QVQLVESGGGLVKPGGSLRLSCAASGFTFSDYYMSWIRQAPGKGLEWVSYIGSSGVNMYYADSVKGRFTISRDNAKNSLYLEMNSLRAEDTAVYYCARDSSQLGFDYWGQGTLVTVSS VL: DIQMTQSPSSLSASVGDRVTITCRTSQNIINFLNWYQQKPGKAPKLLIYTTSTLQSGVPSRFSGSGSGTDFTLSINSLQPEDFATYFCQQTYSNPLTFGGGTKLEIKR | 47 | -3 | 47 | 0.381 | 0.00181 | 4.74e+06 | 6 | 0.167 | 0.000359 | 2.15e+06 | 32 | 0.394 | 0.000114 | 288000 | 102 | 0.00841 | 5.53e-06 | 658000 | 34.8 | 45 | mAb2 binding response (RU) [10]: 9 RU |
| H4H1292P (antibody, IgG4, V domains shown) VH: QVQLVESGGGLVKPGGSLRLSCAASGFTFSDYYMSWIRQAPGKGLEWVSYISSSGSTIYYADSVKGRFTISRDNAKNSLYLQMNSLRAEDTAVYYCARDSSQLGFDYWGQGTLVTVSS VL: DIQMTQSPSSLSASVGDRVTITCRASQSIISFLNWYQQKPGKAPKLLIYTASSLQSGVPSRFSGSGSGTDFTLTISSLQPEDFATYYCQQTYSNPLTFGGGTKVEIKR | 48 | – | 50 | 1.02 | 0.00194 | 1.89e+06 | 6 | 0.38 | 0.00149 | 3.92e+06 | 8 | 0.727 | 0.000248 | 341000 | 47 | 0.257 | 0.000177 | 686000 | 1.08 | 48 | mAb2 binding response (RU) [9]: -1 RU; mAb2 binding response (RU) [10]: 8 RU |

Stronger by Kd [4], values ahead:

| mAb2 binding response (RU) [1] [RU] | mAb2 binding response (RU) [2] [RU] | mAb2 binding response (RU) [3] [RU] | Kd [4] [nM] | koff [4] [s⁻¹] | kon [4] [M⁻¹ s⁻¹] | t1/2 [4] [min] | Kd [5] [nM] | koff [5] [s⁻¹] | kon [5] [M⁻¹ s⁻¹] | t1/2 [5] [min] | Kd [6] [nM] | koff [6] [s⁻¹] | kon [6] [M⁻¹ s⁻¹] | t1/2 [6] [min] | Kd [7] [nM] | koff [7] [s⁻¹] | kon [7] [M⁻¹ s⁻¹] | t1/2 [7] [h] | mAb1 binding response (RU) [8] [RU] | Binder | other results |
| --- | --- | --- | --- | --- | --- | --- | --- | --- | --- | --- | --- | --- | --- | --- | --- | --- | --- | --- | --- | --- | --- |
| 187 | 220 | -4 | 0.324 | 0.00113 | 3.5e+06 | 10 | 0.486 | 0.00155 | 3.18e+06 | 7 | 0.726 | 0.000657 | 904000 | 18 | 0.519 | 0.000651 | 1.25e+06 | 0.3 | 210 | H4H1250P (antibody, IgG4, V domains shown) VH: QVQLVESGGGVVQPGRSLRLSCAASGFTFSSYGMHWVRQAPGKGLEWVAVISNDGSNKYYVDSVKGRFTMGRDNSKNTLYLQMNSLRVEDTAVYYCAKGAGTLYYYYYGMDVWGQGTTVTVSS VL: DIQMTQSPSTLSASVGNRVTITCRASQSISSWLAWYQQKPGKAPKFLIYKASSLESGVPSRFSGSGSGTEFTLTITSLQPDDFATYYCQQYNIYSWTFGQGTKVEIK | mAb2 binding response (RU) [9]: 213 RU |
| 149 | 182 | – | 0.158 | 0.00053 | 3.36e+06 | 22 | 0.682 | 0.00247 | 3.62e+06 | 5 | – | – | – | – | – | – | – | – | 171 | H1M896N (antibody, V domains shown) VH: EVQLLESGGGLVQPGGSLRLSCAASGFTFSTYAMSWVRQAPGKGLEGVSGISGTGYRTYYADSVKGRFTISRDNSKNSLYLQMNSLRAEDTAVYYCAKDRGLLWFGELTYWGQGTLVTVSS VL: DIQMTQSPSTLSASVGDRVTITCRASQSINNWLAWYQQKPGKAPNLLIYKASSLESGVPSRFSGSGSGTEFTLTISSLQPDDFATYYCQQYNDYWTFGQGTKVEIK | mAb2 binding response (RU) [9]: 186 RU; mAb2 binding response (RU) [10]: -4 RU |
